For test [1], the target named is DPP-IV as immobilized on the CM5 Biacore sensor (human) (UniProt P27487). Put plainly: SPR (Biacore), DPP-IV immobilized on CM5, Diprotin A in Hepes running buffer. Background: SPR reads the build-up and loss of mass on a sensor chip optically.
Test [2] addresses soluble extracellular domain of human dipeptidyl peptidase IV (sDPP-IV; residues 31-766), glycosylated (human) (UniProt P27487). The experiment in a line: enzyme inhibition, fluorogenic substrate Ala-Pro-7-amido-4-trifluoromethylcoumarin, assay buffer, 25° C., glycosylated sDPP-IV.

Experimental findings from patent US20070100561A1, “Crystals of DPP-IV” (priority 2002, published 2007) are described below.

soluble extracellular domain of human dipeptidyl peptidase IV (sDPP-IV; residues 31-766), glycosylated (human), sequence (P27487 31-766 limits assumed): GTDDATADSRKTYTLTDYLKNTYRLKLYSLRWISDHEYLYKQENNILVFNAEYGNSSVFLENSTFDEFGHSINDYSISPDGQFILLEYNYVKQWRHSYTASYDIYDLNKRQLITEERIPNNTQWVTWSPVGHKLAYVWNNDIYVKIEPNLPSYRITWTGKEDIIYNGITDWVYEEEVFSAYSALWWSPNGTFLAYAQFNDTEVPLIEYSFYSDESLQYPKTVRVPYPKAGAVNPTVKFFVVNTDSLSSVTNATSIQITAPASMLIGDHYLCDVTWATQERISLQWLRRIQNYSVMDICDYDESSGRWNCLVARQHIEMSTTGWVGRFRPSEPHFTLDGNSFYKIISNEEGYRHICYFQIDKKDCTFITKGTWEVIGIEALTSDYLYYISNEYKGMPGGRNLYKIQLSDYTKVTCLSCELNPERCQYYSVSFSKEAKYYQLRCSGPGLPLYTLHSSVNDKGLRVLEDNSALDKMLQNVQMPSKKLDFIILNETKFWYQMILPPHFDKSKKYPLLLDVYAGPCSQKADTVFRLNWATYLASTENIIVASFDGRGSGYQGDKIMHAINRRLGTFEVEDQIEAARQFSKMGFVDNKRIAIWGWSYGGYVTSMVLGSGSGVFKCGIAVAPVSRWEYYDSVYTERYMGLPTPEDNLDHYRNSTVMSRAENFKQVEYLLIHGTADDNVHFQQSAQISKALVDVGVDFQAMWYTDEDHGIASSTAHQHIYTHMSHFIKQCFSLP
DPP-IV as immobilized on the CM5 Biacore sensor (human), sequence (P27487 31-766 limits assumed): as above

As for Diprotin A (Ile-Pro-Ile) (peptide), the Kd (commonly the free concentration of one partner at which half of the binding sites on the other are occupied at equilibrium, for simple one-to-one binding) in test [1] stood at 3.8 µM. Moreover, the inhibition constant (Ki) (in general, the equilibrium dissociation constant of an inhibitor or competing ligand from its target) in test [2] amounted to 4.63 µM.
